T1: Human B7-H4 with HisFlag tag (huB7-H4-his) (human, UniProt Q7Z7D3 25-258)
T1 construct: also called HuB7-H4 His protein; huB7-H4-HF
T1 sequence: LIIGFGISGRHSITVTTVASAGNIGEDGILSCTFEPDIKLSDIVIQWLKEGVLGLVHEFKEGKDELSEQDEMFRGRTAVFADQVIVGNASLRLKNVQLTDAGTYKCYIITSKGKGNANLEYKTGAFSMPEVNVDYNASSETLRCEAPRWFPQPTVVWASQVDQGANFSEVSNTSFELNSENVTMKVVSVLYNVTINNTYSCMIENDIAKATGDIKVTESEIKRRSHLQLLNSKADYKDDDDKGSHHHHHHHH


Assays:
[1] = molecular target: T1, Human B7-H4 with HisFlag tag …; experiment: indirect ELISA, plate coated with HuB7-H4 His
Description: The plate was washed with PBST (PBS comprising 0.05% Tween-20, pH 7.4) four times, and then 150 μl/well of 3% bovine serum albumin (BSA) blocking solution diluted in PBST was added, and incubated at room temperature for 1 hour for blocking. After the blocking was finished, the blocking solution was discarded and the plate was washed 4 times with PBST buffer.
The antibodies to be tested were diluted with PBST comprising 3% BSA at a gradient of 10-fold dilution, starting from 1 μM with a total of 10 doses. The dilutions were added into the plate at 100 μl/well, and incubated at room temperature for 1 hour. After the incubation was finished, the plate was washed 4 times with PBST, 100 μl/well of HRP-labeled goat anti-human secondary antibody (Abeam, cat #ab97225) diluted in PBST comprising 3% BSA was added and incubated at room temperature for 1 hour. The plate was washed 4 times with PBST, 100 μl/well TMB chromogenic substrate (Cell Signaling Technology, cat #7004S) was added and incubated at room temperature in darkness for 1 minute, and 100 μl/well of Stop Solution (Cell Signaling Technology, cat #7002S) was added to terminate the reaction. The absorbance was read at 450 nm using a microplate reader (BioTek, model Synergy H1), and the data was analyzed.

[2] = molecular target: T1, Human B7-H4 with HisFlag tag …; experiment: SPR Biacore T200, antibody coupled to CM5 chip, series of huB7-H4-his concentrations, 1:1 model
Description: (§1) b). A series of concentrations of human huB7-H4-his protein diluted by the same buffer were respectively loaded at the flow rate of 10 μL/min and the chip was regenerated with the regeneration reagent provided in the kit. Antigen-antibody binding kinetics were recorded for 3 minutes and dissociation kinetics were recorded for 10 minutes. The resulting data were analyzed by GE's BIAevaluation Software using 1:1 (Langmuir) binding model.

[3] = molecular target: T1, Human B7-H4 with HisFlag tag …; experiment: SPR Biacore T200, antibody coupled to CM5 chip, 50 nM huB7-H4-his in flow, 1:1 model
Description: as §1, with “a). 50 nM human” for “b). A series of concentrations of human”, “protein (Sino Biological #10738-H08H)” for “protein”, “buffer was” for “buffer were respectively”, “at a” for “at the”, “10 μL/min,” for “10 μL/min”

Binder	EC50 [1]	Kd [2]	koff [2]	kon [2]	koff [3]
chimeric antibody 2F8 (antibody, human IgG1, V domains shown, also called ch-2F8) VH: QVQLQQPGSVLVRPGASVKLSCKASGYTFTNSWMNWAKLRPGQGLEWIGGIYPNSGNIEYNEKFKGKATLTVDTSSSTAYMDLTSLTSEDSAVYYCARDSRFSYWGQGTLVTVSA VL: DIVMTQSHKFMSTSVGDRVSITCKASQDVRTAVAWYQQKPGQSPKLLISSTSYRYTGVPDRFTGSGSGTDFTFIISSVQAEDLAVYYCQQHYSTPLTFGAGTKLELK	0.067 nM	0.119 nM	0.000114 s⁻¹	1.13e+06 M⁻¹ s⁻¹	
murine mAb 2F8 (antibody, V domains shown, Murine antibody from hybridoma) VH: QVQLQQPGSVLVRPGASVKLSCKASGYTFTNSWMNWAKLRPGQGLEWIGGIYPNSGNIEYNEKFKGKATLTVDTSSSTAYMDLTSLTSEDSAVYYCARDSRFSYWGQGTLVTVSA VL: DIVMTQSHKFMSTSVGDRVSITCKASQDVRTAVAWYQQKPGQSPKLLISSTSYRYTGVPDRFTGSGSGTDFTFIISSVQAEDLAVYYCQQHYSTPLTFGAGTKLELK					6.87e-05 s⁻¹
chimeric antibody 1C9 (antibody, human IgG1, V domains shown) VH: QVQLQQPGSVLVRPGASVKLSCKASGDTFTTYWMNWVKQRPGQGLEWIGGIYLNSGSSEYNEKFKGKATLSVDTSSSTAYMDLSSLTSEDSAVYYCARDSRFSYWGQGTLVTVSA VL: DIVMTQSHKFLSTSVGDRVSITCKASQDVSTAVAWYQQKPGQSPELLISSASYRYTGVPDRFTGSGSGTDFTFTISSVQAEDLAVYYCQQHYNTPLTFGAGTQLELK	0.068 nM				
murine mAb 2E4 (antibody, V domains shown, Murine antibody from hybridoma) VH: QVQLQQPGSVLVRPGTSVKLSCKASGYTFTSSWMNWVKQRPGQGLEWIGGIYPNRGTTEYNEKFKGKATLTVDTSSSTAFMDLNRLTSEDSAVYYCARDSRFADWGQGTLVTVSA VL: DIMLTQSHKFMSTSVGDRVSITCKASQDVSAAVAWYQQKPGQSPKLLISSASYRYTGVPDRFTGSGSGTDFTFTISSVQAEDLAVYYCQQHYNTPLTFGAGTKLELK					5.97e-05 s⁻¹
chimeric antibody M1 (antibody, V domains shown, also called ch-M1) VH: EIQLQQSGPELVMPGASVKVSCTASGYPFTTYNMYWVKQSHGKSLEWIAYIDPYNGGTSYNQKFKGKATLTVDKSSSTAYMHLNSLTSEDSAVYYCARSGFYDGYYAWYFDVWGAGTTVTVSS VL: DVVMTQTPLSLPVSLGDQASISCRSSQSLVHSGGNTYLHWYLQKPGQSPKLLIYKVSNRFSGVPDRFSGSGSGTDFTLKISRVEAEDLGVYFCSQSTHVPLTFGAGTKLELK	0.063 nM	0.14 nM	9.41e-05 s⁻¹	674000 M⁻¹ s⁻¹	
M1 (listed as murine antibody) (antibody, V domains shown) VH: EIQLQQSGPELVMPGASVKVSCTASGYPFTTYNMYWVKQSHGKSLEWIAYIDPYNGGTSYNQKFKGKATLTVDKSSSTAYMHLNSLTSEDSAVYYCARSGFYDGYYAWYFDVWGAGTTVTVSS VL: DVVMTQTPLSLPVSLGDQASISCRSSQSLVHSGGNTYLHWYLQKPGQSPKLLIYKVSNRFSGVPDRFSGSGSGTDFTLKISRVEAEDLGVYFCSQSTHVPLTFGAGTKLELK					3.98e-05 s⁻¹
chimeric antibody 2A10 (antibody, human IgG1, V domains shown) VH: EVQLVESGGGFVKPGGSLKLSCAASGFTFSTFGMSWVRQTPDKRLEWVAGISPGGSYTYYPDTVKGRFTISRDNARNTLYLQMSSLRSEDSAMYYCTRGRSVWGTGTTVTVSS VL: DILMTQSPSSMSVSLGDTVSITCHASQDISSNIGWLQQKPGKSFKGLIYHGTTLEDGIPSRFSGSGSGADYSLTISSLESEDFADYYCVQSAQFPWTFGGGTKLEIK	0.071 nM				
chimeric antibody 2F4 (antibody, human IgG1, V domains shown, also called ch-2F4) VH: EVQLVESGGGLVKPGGSLKLSCAASGLTFSRYAMSWVRQTPEKRLEWVAGISSGGSYTYYSDTVKGRFTISRDNVRNTLYLQMSSLRSEDTAMYYCGREYGRDYWGQGTSVTVSS VL: DILMTQSPSSMSVSLGDTVSITCHASQGINSNIGWLQQKPGKSFKGLIYHGTNLEDGVPSRFSGSGSGTDYSLTISSLESEDFADYYCVQYAQFPRTFGGGTTLEIK	0.056 nM	2.5 nM	0.00259 s⁻¹	1.04e+06 M⁻¹ s⁻¹	
murine mAb 2A10 (antibody, V domains shown, Murine antibody from hybridoma) VH: EVQLVESGGGFVKPGGSLKLSCAASGFTFSTFGMSWVRQTPDKRLEWVAGISPGGSYTYYPDTVKGRFTISRDNARNTLYLQMSSLRSEDSAMYYCTRGRSVWGTGTTVTVSS VL: DILMTQSPSSMSVSLGDTVSITCHASQDISSNIGWLQQKPGKSFKGLIYHGTTLEDGIPSRFSGSGSGADYSLTISSLESEDFADYYCVQSAQFPWTFGGGTKLEIK					0.000331 s⁻¹
murine mAb 2F4 (antibody, V domains shown, Murine antibody from hybridoma) VH: EVQLVESGGGLVKPGGSLKLSCAASGLTFSRYAMSWVRQTPEKRLEWVAGISSGGSYTYYSDTVKGRFTISRDNVRNTLYLQMSSLRSEDTAMYYCGREYGRDYWGQGTSVTVSS VL: DILMTQSPSSMSVSLGDTVSITCHASQGINSNIGWLQQKPGKSFKGLIYHGTNLEDGVPSRFSGSGSGTDYSLTISSLESEDFADYYCVQYAQFPRTFGGGTTLEIK					0.00166 s⁻¹
chimeric antibody 2G6 (antibody, human IgG1, V domains shown) VH: EVQLVESGGGLVKPGGSLKLSCAASGFTFSRYGMSWVRQTPEKRLEWVAGINGGGSYTYYLDTVKGRFTISRDNSRNTLYLQMSSLRSEDTAMYYCVSQGSNYYFDYWGQGTTLTVSS VL: DIRMTQSPSSMSVSLGDTVSITCHASQGISSNIGWLQQKPGKSFKALIYHGTNLEDGVPSRFSGSGSGADYSLTISSLESEDFADYYCVQYAQFPYTFGGGTKLEIK	0.081 nM				
murine mAb 1E4 (antibody, V domains shown, Murine antibody from hybridoma) VH: EVQLVESGGGLVKPGGSLKLSCAASGFTFSRYAMSWVRQTPEKRLEWVAGISSGGSYTYYPDTLKGRFTVSRDNARNTLYLQMSSLRSEDTAKYFCASQGSNHYFDYWGQGTTLTVSS VL: DTLMTQSPSSMSVSLGDTVSITCHASQGIHNNIGWLQQKPGKSFKALIYHGTNLEDGVPSRFSGSGSGADYSLIISSLESEDFADYYCVQYAQFPYTFGGGTKLEIK					0.000293 s⁻¹
murine mAb 2G6 (antibody, V domains shown, Murine antibody from hybridoma) VH: EVQLVESGGGLVKPGGSLKLSCAASGFTFSRYGMSWVRQTPEKRLEWVAGINGGGSYTYYLDTVKGRFTISRDNSRNTLYLQMSSLRSEDTAMYYCVSQGSNYYFDYWGQGTTLTVSS VL: DIRMTQSPSSMSVSLGDTVSITCHASQGISSNIGWLQQKPGKSFKALIYHGTNLEDGVPSRFSGSGSGADYSLTISSLESEDFADYYCVQYAQFPYTFGGGTKLEIK					8.91e-05 s⁻¹
chimeric antibody 2F7 (antibody, human IgG1, V domains shown, also called ch-2F7) VH: EVQLVESGGGLVQPGGSLKLSCAASGFTFSNYYMSWVRQTPEKRLEWVAYVSSGGGSTYYSDSVKGRFTISRDNAKNTLYLQMSSLKPEDTAMYYCTRESYSQGNYFDYWGQGTTLTVSS VL: DIVMTQSPATLSVTPGDRVSLSCRASQSISDYLHWYQQKSHESPRLLIKFASQSISGIPSRFSGSGSGSDFTLSINSVEPEDVGVYYCQNGHSFSLTFGAGTKLELK	0.17 nM	68.8 nM	0.00304 s⁻¹	44200 M⁻¹ s⁻¹	
murine mAb 2F7 (antibody, V domains shown, Murine antibody from hybridoma) VH: EVQLVESGGGLVQPGGSLKLSCAASGFTFSNYYMSWVRQTPEKRLEWVAYVSSGGGSTYYSDSVKGRFTISRDNAKNTLYLQMSSLKPEDTAMYYCTRESYSQGNYFDYWGQGTTLTVSS VL: DIVMTQSPATLSVTPGDRVSLSCRASQSISDYLHWYQQKSHESPRLLIKFASQSISGIPSRFSGSGSGSDFTLSINSVEPEDVGVYYCQNGHSFSLTFGAGTKLELK					0.00253 s⁻¹

Source: patent US20210032347A1 (JIANGSU HANSOH PHARMACEUTICAL GROUP, published 2021)
